Article PMC9303464

Key:
[1] = target: NepR2 (Sphingopyxis granuli TFA); assay: SPR
[2] = target: NepR1 (Sphingopyxis granuli TFA); assay: SPR

Substance | Kd [1] | Kd [2]
EcfG1 (natural protein) | 38.8 nM | 
EcfG2 (natural protein) | 23.5 nM | 14.2 nM
